This assay concerns the target T1, human tissue factor pathway inhibitor (TFPI) (human, UniProt P10646 29-304, biotinylated in the ELISA (site not stated)).
T1 construct: Full length TFPI and a short version, TFPIB161B (first two Kunitz domains), were both used for immunisation and ELISA; also called TFPI1; human TFPI1
T1 sequence: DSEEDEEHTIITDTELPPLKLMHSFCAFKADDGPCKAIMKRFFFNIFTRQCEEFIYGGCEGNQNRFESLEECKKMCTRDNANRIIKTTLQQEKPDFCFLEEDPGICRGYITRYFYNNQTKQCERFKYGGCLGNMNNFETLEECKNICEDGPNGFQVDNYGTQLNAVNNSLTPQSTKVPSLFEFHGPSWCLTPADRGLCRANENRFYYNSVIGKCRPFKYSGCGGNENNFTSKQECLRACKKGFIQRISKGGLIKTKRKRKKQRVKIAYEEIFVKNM
Nature of the assay: hybridoma screening; ELISA with antibody captured on anti-mouse IgG and soluble biotinylated human TFPI or TFPIB161B, as described in the methods. Here is the method: Immunoplates were coated with anti-mouse IgG. Culture supernatants from the hybridoma cells were added to the plates and, after washing, soluble biotinylated human TFPI or TFPIB161B was added to test for specific binding.
(In general: In an ELISA, binding on a coated surface is turned into a signal by an enzyme label.)

B1: TFPI-3F18A4B1 (antibody, IgG1, V domains shown)
VH: EVKLVESGGGLVKPGGSLRLSCAASGFTFSNYALSWVRQTPDKRLEWVASISSGGATYYPDSVEGRFTISRDNVRNILYLQMSSLQSEDTAMYYCTRGAYGSDYFDYWGQGTTLTVSS
VL: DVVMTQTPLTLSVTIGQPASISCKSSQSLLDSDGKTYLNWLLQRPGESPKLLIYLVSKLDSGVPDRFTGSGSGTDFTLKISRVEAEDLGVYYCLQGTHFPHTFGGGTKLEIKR
notes: also called TFPI-3F18A2; anti-TFPI antibody 3F18
Regarding B1, the binding result is “binds”.
